The source of these data is patent US20130115216A1.

Experiment [1] addresses HLA-A2 (HLA-A*0201) (human). Briefly: assembly assay, HLA-A2 recovery from T2 cell lysate.
The target of experiment [2] is HLA-A2 (HLA-A*0201) (human). Briefly: assembly assay, HLA-A2 recovery from TAP-deficient cell lysate.

As for “C1 (HIV-1 pol476-484) (peptide; other documents disagree on this pair)”, the C50 in experiment [1] was determined as 0.7 µM; in experiment [2] it was 0.2 µM.
